Target: ectodomain of the S protein of SARS-CoV-2 B.1.1.7 (S-UK) (SARS-CoV-2) (UniProt P0DTC2)
Test: cryo-EM structure

ectodomain of the S protein of SARS-CoV-2 B.1.1.7 (S-UK) (from UniProt P0DTC2 14-1208) (domain or fragment)
stoichiometry N: 3 protomers

From paper doi:10.1101/2021.05.11.443686
